1 molecule from patent US20120252691, “MODIFIED NUCLEOTIDES METHODS AND KITS” (Pierce Biotechnology, Inc., published 2012) can be followed below.

The target of the series is PABPC1-GST (Poly(A) binding protein) (UniProt P11940 P11940:1-636). Briefly: pulldown; 10 mM Tris pH 7.5, 2.5 mM MgCl2, 10 mM KCl, 15% glycerol, tRNA, 4 C; also with UV crosslinking (FIG. 17). The note with it: tags: GST; label: 3'-biotin-PEG12-alkane-cytidine. Here is the method:
Poly(A)₂₅ RNA was labeled using biotin-PEG₁₂-alkane-3′5′-bisphosphate cytidine and T4 RNA ligase. The Poly(A) Binding Protein (PABP), which binds the poly(A) tracts of mRNA, was cloned into a vector containing a GST-tag and expressed in a human cell-free in vitro translation (IVT) system. The lysate was diluted 1:10 for use in the binding reaction. The labeled RNA (50 pmol) was incubated with streptavidin magnetic beads (0.5 mg) for thirty minutes in 20 mM Tris-HCl (7.5), 100 mM NaCl, 1 mM EDTA. After washing, the beads were then incubated with 2-3 μl of diluted IVT lysate cell lysate in Binding Buffer (10 mM Tris-HCl, pH 7.5, 2.5 mM MgCl₂, 10 mM KCl, 15% glycerol, 0.5% Tween-20, and 10 μg tRNA) for one hour at 4° C. An unrelated RNA was used as a negative control, and beads were incubated with lysate alone to assess background. […] After separation by electrophoresis, PABP was detected using PABP antibody.
Synthetic RNA (50 pmol/reaction) was end-labeled using a twenty-fold excess of Biotin-PEG₁₂-Alkane-3′5′-Bisphosphate Cytidine with T4 RNA ligase. […] Normalized samples were separated by electrophoresis, transferred, and detected using PABPC1, GST (SNRPA1) antibodies (1:1000 dilution in TBST-0.5% BSA). […]

Chain of PABPC1-GST (Poly(A) binding protein) (P11940 whole entry, one chain of several): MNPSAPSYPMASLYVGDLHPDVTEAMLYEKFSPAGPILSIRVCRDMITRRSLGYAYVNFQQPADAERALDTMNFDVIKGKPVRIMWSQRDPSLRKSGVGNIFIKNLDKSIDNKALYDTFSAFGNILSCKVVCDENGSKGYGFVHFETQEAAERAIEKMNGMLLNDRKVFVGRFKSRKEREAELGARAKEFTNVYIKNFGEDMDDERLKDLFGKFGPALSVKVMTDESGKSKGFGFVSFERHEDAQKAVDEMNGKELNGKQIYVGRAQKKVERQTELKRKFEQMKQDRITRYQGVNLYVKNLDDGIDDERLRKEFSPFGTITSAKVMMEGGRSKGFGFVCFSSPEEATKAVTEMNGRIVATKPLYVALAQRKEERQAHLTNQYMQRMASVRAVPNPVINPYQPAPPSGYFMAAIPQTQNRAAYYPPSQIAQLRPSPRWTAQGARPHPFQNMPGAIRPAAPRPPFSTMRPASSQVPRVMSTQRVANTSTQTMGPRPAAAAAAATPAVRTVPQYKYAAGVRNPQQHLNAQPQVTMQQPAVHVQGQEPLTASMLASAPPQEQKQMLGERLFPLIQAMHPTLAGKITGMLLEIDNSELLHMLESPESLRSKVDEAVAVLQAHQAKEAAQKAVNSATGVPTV

As for AAAAAAAAAAAAAAAAAAAAAAAAA (ssRNA) [Poly(A)25 RNA, biotin-PEG12], the binding result is recorded as “binds”.
